Source: article PMC5183740

Legend:
[1] = molecular target: SA-HA2 (streptavidin core fused to residues 76-130 of HA2 of A/PARIS/2590/2009 (H1N1)) (Streptomyces avidinii | influenza A virus A/PARIS/2590/2009 (H1N1)); assay: SDS-PAGE of unheated samples
[2] = molecular target: SA-NP (streptavidin core fused to the nucleoprotein NP of A/PARIS/2590/2009 (H1N1)) (Streptomyces avidinii | influenza A virus A/PARIS/2590/2009 (H1N1)); assay: SDS-PAGE of unheated samples

Substance | stoichiometry N [1] | stoichiometry N [2]
SA-HA2 (streptavidin core fused to residues 76-130 of HA2 of A/PARIS/2590/2009 (H1N1)) | 4 | 
SA-NP (streptavidin core fused to the nucleoprotein NP of A/PARIS/2590/2009 (H1N1)) |  | 4
